15 sequences from a protein production outcome set (Wang et al. 2014) can be followed below.

The series in a line: label from the status in PepcDB records.
“MTEPNNPHRPDEAGVSGWPSEAGRDPYGQPSNPYQMPAPYSSGLPVAENHRRPYVDFGLAIKLFFKNYAVFRGRASRSEYWWTVLFNFIIAVAIQALMPILQGVGLMSAITSNSTTEFSAMSTSGVIFTMLPLAWLLAIIIPCLALTVRRLHDVNHSGWWVMAPTLCGIVSAIMMILAFVSAAANDGKPSMALLTIGIVLFVAIFVVNIILLIFVISDSHPEAWKKYDKEPLPVTE”: the protein production entry is recorded as “failed”.

Turning to “MTEPPPTPDRHPDAVESAAPGGYLEPVRAAGTVLWRDTGRGREIALVHRPRYNDWTLPKGKLDEGEHVLVAAVRETVEETGVTPRLGRRLATQRYWKSGWPKQVDWWAATPAPGTTAQFTPTAEVDAVEWLPAAEARARLTYPSDVRVLDDFLHGPAQTVPLVLLRHASAGNKNEWHDYDLLRPLDEAGRAHARAVADILAVFGPLRVVSSTAARCLETVVPYAAAHGVEIRTEHTFTVGVLRSGAQAYDPQAARQTMRALVEERQPTLVCTHGELVADLMAEAAAQTGAPARSRWALRKGAFWVVHRDAKDGSLVAVEHHGLPG”, the protein production result is reported as “failed”. The same measure for “MTEPTHKKQFSLRTAVMLPFIAVLLVTLSIVFYTQNNSYEKLVGDVSEKVLASYTQNTHADLNIFLNAPNFAVKSMVNQIQRYQMYHPNDTKQLQQFLKDSLEGIYTGLEQMDVLSFGGEKKEYIGFRREPNASLSLMLQDKRTNDDLIIYRGSEMSDNIRTVIANYDPRSRPWYKPAATTFKPSWSKIYTNADEKKEITISTMHPVFYDEDFIGVFAADVKLDSFNKFLSQETKHTKGVIYLIDDQQRLIAHSSVGSVLSIGTQNSPVGSRLFAVESCDETIQQSATYIKNNQLINNKNNDAEVFSFYYKGERYFSQITPYIDGNNLNWYIVISISESDLLGHLQEEQRRGLFFGIVLAAIGLIVGVYLVTQVTKPIFTTANAARNIASGNWNNNVEAQGSIYETTLLMNAFNDMTNKLQSSFDAMRQQITFDSLTQVLSRQGLIEQCRIMLDKKEHYEQGLLVIGINNFRDINDSFGILEGDQLLKNISDRLQCSFAHDNIAIARVGGDEFALFFSKLDDVEQLKQYARDMEGCFMTPFRVASNNSLLSISTGLVYGDLSCDSMTLWLRNASIALGQAKKNNLNMSLYTPEMAEASLHKANMTAELSLAIKNKELVPFYQPIIDIKSGKTIGAEALIRWLSPQRGMVSPLDFIPLAEENGMIIPMGSQVLTQACLDTVERIDQGLWPADFHMHVNLSVCQLTQNNFLDELKAVLHNTSMAPENLTLEITESRLVNHDNSTINTMQKIRDLGVQIAIDDFGTGYSSLAYIHKLPFDVLKVDRSFIKDLTAENIDSSIAAAVCNMTQGFDITLVAEGIETQEQAKLLASLNYHHAQGFLYSRPIPLEDWPTE”: “failed”; for “MTERPSLSPREARDRYLAHRQTDAADASIKSFRYRLKHFVEWAEERDITAMRELTGWKLDEYETFRRGSDVSPATLNGEMQTLKNWLEYLARIDVVDEDLPEKVHVPTIPDGEESNDEMLEPEAAKKLLRAMRSDPTHYGTVKHALLELLWFTGCRVGAARSLDLRDYHSGERFVTFHHREGTPLKNDSDGERAVGLPEAVCEVLDYYIEHHRESSHDDHGRKPLFTTTQGRASENTARVWTYLATQPCLHGPCPHGKERETCSYLHIHSASKCPSSLSPHRIRTGSITWQRDCGLPAEVVSERVNATLEVIEKHYDQATKRQRLEERRRPYINNLELDLEADS”: “failed”; for “MTESATASRSWHLQATIRRLVLTAFVAGQTGLASWFLLQVLPYHGGNVVEWLIVAVFAVLYLWIAFGFWIAVYGFLLRLLGGDRASLLKRHTPNELAATPLSKTAIVMPLYHEPVSWTLKGLKAIYLDLARSGRLDDFDFYILSDSQDPDVWLQEQQVWLKLVEELGAHGRLFYRRRRVNLNYKSGNVADFLRRWGSQYQYMVVLDADSLLAGDTIRTMVQVMNREPQVGILQTAPTIINARSAFARIQQFANRLYSPLFATGLAAIQMGDAAFWGHNAVIRVAPFMAHCGLPKLKGAGIWQGPIMSHDFVEAAFLGRAGYEVWLEPALGASYEESPPTLDDELARDQRWSKGNLQHAALMLFSPRLRLAHRFAFLNGIMAYASSPLWLLFLVLTTIAAVQLTIAPIDYFPDGRESPFPLWPEWRPTWAITLVVSTMALLFLPKFLAIVDVVAHRTLSGFGGFFRLLCSVLLEIVVSVLLAPIRMLAHSHSVVSALLNVRLSWAGQNRTEETGWREAAVRHLPGLIIGSAWSAFAWTLDPMFFLWSLPVSIPLALAAPTTVWLSRSSSGESLSRRGLLLTPEERTRMPLLDDARGFREEAESEVALTPVEQAVLIPAVNRLHRQLAGRGAKGLKKEVIEGELDACVSRGYRGIEKGRLSLLLEDPQALTALHRRAWSAPSDSFWGQRVRNLVLHAQGLQDL”: “failed”. The same measure for “MTEVDPRFEAWLSLETGIDAPSLGANALERAVLERARAMLAESSPRRPAVADAAALDAYWLRLNTWPEERQALIEALVVPETWFFRDREAFAELARLAGERLVREPARVLRILSVACSTGEEPYSAAMALLDAGIGPARFAIDAIDISGRAIDQAEHALYGRNAFRGYPLTFRDRYFSEVADGWQLNERVRRRVRFTQGNLFDETMDGEARYDFIFCRNALTYFHRDAQDHAIRRLDAQLADGGVIFVGPAETGPMMRHAMTPARSPLAFAFVRTPPAAKVPARAAPSQQQAPRPAVTGSPTVKPAAPEAASLAVRGGGAALPEHSAAVPVSLSTPLSVPPLRKVLPDLDDARQLTDAGRFDEAEYIIQDIVSLSAPEADTFYLLGVIAHARGRYADAGDFYRKTLYLDPEHYEALTHLAAVLDASGDAVGARQLMLRAQRAMARRDPAHPDAPNRPRGAPGLRRS”: “failed”.

With “MTEVYDLEITTNATDFPMEKKYPAGMSLNDLKKKLELVVGTTVDSMRIQLFDGDDQLKGELTDGAKSLKDLGVRDGYRIHAVDVTGGNEDFKDESMVEKYEMSDDTYGKRTDSVRAWKKKMQEEQGSAAPMENESDKLNEEAAKNIMVGNRCEVTVGAQMARRGEVAYVGATKFKEGVWVGVKYDEPVGKNDGSVAGVRYFDCDPKYGGFVRPVDVKVGDFPELSIDEI”, the protein production result is reported as “not failed”.

As to “MTFEIAFVLLSLLGMVIALILDKMRPGMILFSVVVLFLCAGILTPKEMLEGFSNKGMITVALLFLVSEGIRQSGALGQVVKKLLPQKRTTVFRAQLRLLPAVAFISAFLNNTPVVVIFAPIIKRWARTVHLPATKFLIPLSYVTILGGICTLIGTSTNLVVHGMILESGHEGFTMFELGKVGIFIAIAGIIYLFAFSKKLLPDARPDTAVPDEEVEEGDKLHRVEAVLGARFPGINKTLGEFNFKRHYGAEVKEIKKRNGQRFINNLEEVILREGDTLVVMADDTFIPTWGESSVFVLLANGNDNEPIPGKGKRWFALILLILMIAGATIGELPVVKEMFPDMKLDMFFFVSVTTIIMAWTKIFPARKYTKYISWDILITIACAFAISKAMVNSGVADKVAGFIIGMSHDYGPHVLLAVLFIITNLFTELITNNAAAALAFPLALSLSVQLGVDPTPFFVVICMAASASFSTPIGYQTNLIVQGIGNYKFMDFVRIGLPLNLITFLISIFLIPLIWPF”, the protein production result is listed as “failed”. The same measure for “MTFEIVFVLLSLLGMMAALIADKMRPGMVLFSVVVLFLCVGILTPKEMLEGFSNKGMITVALLFLVSEGIRQSGTLGQVIKKLLPQGKTTVFKAQLRILPSVAFISAFLNNTPVVVIFAPIIKHWAKSVKLPATKFLIPLSYVTILGGICTLIGTSTNLVVHGMILEAGYEGFTMFELGKVGIFIAIAGIIYLFIFSKRLLPDARPDTAVPDEEVEEGEKLHRVEAVLGARFPGINKKLSDFNFQRHYGAEVKEIKTRNGQRYVDHLEDVVLREGDTLVVMADDTFIPTWGESSVFVLLTNGNDPDTSGKKKRWLALILLVLMIVGATVGELPATKEMFPDIKLDMFFFVCITTIIMAWTNIFPARKYTKYISWDILITIACAFAISKAMVNSGVADCVAGFIIGLSDDYGPHVLLAILFVITNLFTELITNNAAAALAFPLALSISAQLGVSPTPFFVVICMAASASFSTPIGYQTNLIVQGIGNYKFTDFVRIGLPLNIITFLISVILIPLIWNF”: “not failed”; for “MTFFTNYTNLALIAILLVSGGLLAWPALRRGRGGLSAAEATQLINRRNAVVIDLRAATDFAAGHLPSARQVAAGEIGAKIAQVAKNKSTPVLLVCQNGQQSQKAAREVQAAGYAEVHVLEGGVAAWQQAGMPVVKQGVAK”: “failed”; for “MTFKQVADDWLKQYANDVKVSSVRAREKAIQHAIERFNTKPIQTIKKHDYQRFVDDISAQYSKNYVDSIVASTNMIFKYAYDTRLIKAMPSEGIKRPKKKVSVELEHHHHHH”: “not failed”. The same measure for “MTFLSQLSTHADKAFLRRLFAIALPITLQSIMFSSRSLVDVLMLGQLGEAEIAAVGVAARATFVTTIMLVGVTTGGALLTAQYWGAGDKIGVRQSTSLTWMIAMVFAALAVCLFVFFPQPIMGLTTDSQEVIELGSSYLVISSASMFAVACVASMAVGLRAMHQPGLSTFFSGIGILSNVFLNWVLIFGHLGFPALGITGAAIATVISGAIEVGCLFGYLWLKKHIIAFGWGDIRASLVLDKITRFLSLSLPTTFNFLAWAGGLFAYHAIMGQAGVQGLAALSVMTPVESIALAMMIGLSNAAAVLVGNQLGAKNFEPVYYQAWATVILNVLIAFGVAVLLFFTNQLILDAFSALSAETRHLAEQFMVILALGVILRSVPMMVIVGVLRAGGDVKFCLYQDVFAQWIIGIPLAAFAAIYLGWEPQWVYLLFLTEEVVKWCICLPRMKSKKWMKNLIEK”: “not failed”; for “MTFRESVPFIVAIAATIPGILLRVVHPDISPLLMASLTGLAILGASFMLMWACEVAQMDIPQTLALAVVALIAVLPEYAVDMYFTWMAGQHPESNYAHYAIANMTGANRLLIGIGWSAIAILYALRFRKAVQLEEERRSELLFLALATAYALVIPLKGTLEWYDGVILVSLYVWYIRIASKRPCTDCEVEGPAEALAHLPRNTRRLTTLGLFLFAAGVILCDAELFSESLVASGKVLGINEFLLVQWLAPIASEAPEFIVAIMFATRGQASLALGSLISSKLNQWTLLVGMIPGVFAVSSGSINPPMPMDDHQMHELLLTAAQSLFAVVLLARMRLGLRGALVLLALFIGQFAAPLYEPYVENLLGIPHMPDGLHIVYSGLYIALALGMMLYRPGRLLQLREGLKV”: “failed”. Turning to “MTFRGPSPPRFGHSMDLPAYAIEAEGLYKTYAGTKTSPEKRALNGIDLKIPRGSIFGLLGPNGAGKSTFINILAGLVRKSSGTVRIWGRDIDQRPRDARAAIGVVPQELAADVFFTPRESLEVQAGFYGVPKSERRTDELLNALGLGDKAGAYVRQLSGGMKRRLMVAKAMVHQPPVLILDEPTAGVDVELRRQLWQYVTSLNELGVTIVLTTHYLEEAQELCDEIAIINRGEVVACEPTAKLLSRMDSRNVVVTPESPVTAAPVLEGFDTKLRSGGAFSVSYRTGQSSVEQVLAAVRASGLHIKDIATEDPDLEDVFVALTYGDPNAADPTKDLEHHHHHH”, the protein production result is “failed”. The same measure for “MTFSSKLKSFCSRYFSSHEKDKYKALMKQKLLNPLSSSSPNYDEMIQENFKPHWIIGIDPNLSGALAVLKFDDKGSCSAQVNPY”: “failed”.
